The record followed here is patent US20150044251A1 (Novartis, published 2015).

The labels stand for the following.
B2: Sta006 (other)
chain: MASCGNQGEKNNKAETKSYKMDDGKTVDIPKDPKRIAVVAPTYAGGLKKLGANIVAVNQQVDQSKVLKDKFKGVTKIGDGDVEKVAKEKPDLIIVYSTDKDIKKYQKVAPTVVVDYNKHKYLEQQEMLGKIVGKEDKVKAWKKDWEETTAKDGKEIKKAIGQDATVSLFDEFDKKLYTYGDNWGRGGEVLYQAFGLKMQPEQQKLTAKAGWAEVKQEEIEKYAGDYIVSTSEGKPTPGYESTNMWKNLKATKEGHIVKVDAGTYWYNDPYTLDFMRKDLKEKLIKAAK
notes: Seen as monomer and dimer in the formulations

Data set [1] deals with the molecule itself. As to the kind of experiment: capillary electrophoresis (SDS-MW) of tetravalent formulation, pH 6, no EDTA, 25 C up to 72 h; self-association (disulfide-linked dimer).
Protocol: (§1) Capillary Electrophoresis analyses were performed with a Beckman Coulter PA800 instrument, SDS-MW application. The sample was prepared by mixing 90 μL of the pre-lyophilized formulation with 10 μL of TRIS-SDS buffer.
The data set “Sta006” deals with B2. As to the kind of experiment: capillary electrophoresis (SDS-MW) of tetravalent formulation, pH 6, no EDTA, 25 C up to 72 h; attributed to redox reactions.
Protocol: as §1
Data set [2] deals with the molecule itself. Description: SEC-HPLC of tetravalent pre-lyophilized formulation; self-association (dimer peak).

B1: EsxAB hybrid polypeptide (other)
chain: MAMIKMSPEEIRAKSQSYGQGSDQIRQILSDLTRAQGEIAANWEGQAFSRFEEQFQQLSPKVEKFAQLLEEIKQQLNSTADAVQEQDQQLSNNFGLQASGGGSGGYKGIKADGGKVDQAKQLAAKTAKDIEACQKQTQQLAEYIEGSDWEGQFANKVKDVLLIMAKFQEELVQPMADHQKAIDNLSQNLAKYDTLSIKQGLDRVNP
notes: also called EsxAB monomer
For B1, the binding result (in data set [1]; with Sta006) was “binds” each time.
On to B2, for which the binding result in data set [2] was “binds”.
